According to article PMC3402383:
pKd: −log10 of the molar value.

Assays:
[1] = molecular target: human complement protein C4b (human) (UniProt P0C0L4)
[2] = molecular target: human complement protein C3b (human) (UniProt P01024); test: ELISA; C3b or C4b (1 µg) immobilised in microtiter wells in PBS pH 7.2; up to 1 µM His-tagged Lig protein in 2% BSA-PBS pH 7.2, 37°C, 1 h; detected with anti-His antibody; apparent Kd = concentration of LigB that gives half-maximal binding
[3] = molecular target: human complement protein C4b (human) (UniProt P0C0L4); test: as above
[4] = molecular target: human complement protein C3b (human) (UniProt P01024); settings: scale: % of complement activity in untreated serum

human complement protein C4b (human), sequence (P0C0L4 20-675, chain 1 of 3): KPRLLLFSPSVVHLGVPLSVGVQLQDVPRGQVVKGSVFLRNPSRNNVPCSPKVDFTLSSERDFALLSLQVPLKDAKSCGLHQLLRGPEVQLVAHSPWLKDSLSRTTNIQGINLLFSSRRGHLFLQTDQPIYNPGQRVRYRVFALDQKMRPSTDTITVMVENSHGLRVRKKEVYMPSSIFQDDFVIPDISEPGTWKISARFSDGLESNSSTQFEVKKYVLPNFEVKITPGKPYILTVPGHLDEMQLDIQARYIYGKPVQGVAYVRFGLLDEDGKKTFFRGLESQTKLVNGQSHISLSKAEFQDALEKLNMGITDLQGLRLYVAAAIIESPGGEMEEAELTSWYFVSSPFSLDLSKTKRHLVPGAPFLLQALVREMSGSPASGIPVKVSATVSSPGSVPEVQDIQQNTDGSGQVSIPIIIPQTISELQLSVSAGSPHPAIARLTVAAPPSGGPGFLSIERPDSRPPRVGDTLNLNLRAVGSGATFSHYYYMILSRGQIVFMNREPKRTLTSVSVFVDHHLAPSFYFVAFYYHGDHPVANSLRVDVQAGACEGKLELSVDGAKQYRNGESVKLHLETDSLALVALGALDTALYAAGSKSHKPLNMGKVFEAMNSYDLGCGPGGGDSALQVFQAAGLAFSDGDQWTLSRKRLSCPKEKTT
human complement protein C4b (human), sequence (P0C0L4 757-1446, chain 2 of 3): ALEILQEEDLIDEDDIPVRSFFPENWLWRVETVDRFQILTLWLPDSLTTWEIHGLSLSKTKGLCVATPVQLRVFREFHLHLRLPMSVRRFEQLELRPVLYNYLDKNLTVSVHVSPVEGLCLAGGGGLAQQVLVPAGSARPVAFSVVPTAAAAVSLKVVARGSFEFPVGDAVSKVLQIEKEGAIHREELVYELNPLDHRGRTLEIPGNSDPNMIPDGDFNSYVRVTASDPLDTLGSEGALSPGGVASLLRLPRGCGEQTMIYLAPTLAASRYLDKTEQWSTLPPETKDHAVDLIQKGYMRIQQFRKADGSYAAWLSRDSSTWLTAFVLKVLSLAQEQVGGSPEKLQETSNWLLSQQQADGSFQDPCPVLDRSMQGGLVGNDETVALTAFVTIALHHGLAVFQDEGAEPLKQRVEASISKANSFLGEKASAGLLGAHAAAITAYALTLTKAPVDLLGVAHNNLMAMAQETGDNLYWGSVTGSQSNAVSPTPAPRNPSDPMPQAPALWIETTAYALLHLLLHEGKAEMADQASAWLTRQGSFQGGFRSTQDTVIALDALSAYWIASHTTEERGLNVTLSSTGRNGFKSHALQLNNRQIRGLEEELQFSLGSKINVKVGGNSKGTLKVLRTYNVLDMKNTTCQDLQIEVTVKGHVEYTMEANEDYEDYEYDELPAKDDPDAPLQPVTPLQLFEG
human complement protein C4b (human), sequence (P0C0L4 1454-1744, chain 3 of 3): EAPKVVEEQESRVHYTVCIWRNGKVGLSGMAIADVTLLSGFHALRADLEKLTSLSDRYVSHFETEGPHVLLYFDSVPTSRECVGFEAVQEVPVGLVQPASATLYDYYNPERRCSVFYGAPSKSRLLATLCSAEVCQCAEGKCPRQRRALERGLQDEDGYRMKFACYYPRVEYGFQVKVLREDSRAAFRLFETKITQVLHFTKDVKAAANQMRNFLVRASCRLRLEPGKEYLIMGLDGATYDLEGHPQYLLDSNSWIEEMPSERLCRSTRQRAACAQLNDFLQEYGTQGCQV
human complement protein C3b (human), sequence (P01024 23-667, chain 1 of 2): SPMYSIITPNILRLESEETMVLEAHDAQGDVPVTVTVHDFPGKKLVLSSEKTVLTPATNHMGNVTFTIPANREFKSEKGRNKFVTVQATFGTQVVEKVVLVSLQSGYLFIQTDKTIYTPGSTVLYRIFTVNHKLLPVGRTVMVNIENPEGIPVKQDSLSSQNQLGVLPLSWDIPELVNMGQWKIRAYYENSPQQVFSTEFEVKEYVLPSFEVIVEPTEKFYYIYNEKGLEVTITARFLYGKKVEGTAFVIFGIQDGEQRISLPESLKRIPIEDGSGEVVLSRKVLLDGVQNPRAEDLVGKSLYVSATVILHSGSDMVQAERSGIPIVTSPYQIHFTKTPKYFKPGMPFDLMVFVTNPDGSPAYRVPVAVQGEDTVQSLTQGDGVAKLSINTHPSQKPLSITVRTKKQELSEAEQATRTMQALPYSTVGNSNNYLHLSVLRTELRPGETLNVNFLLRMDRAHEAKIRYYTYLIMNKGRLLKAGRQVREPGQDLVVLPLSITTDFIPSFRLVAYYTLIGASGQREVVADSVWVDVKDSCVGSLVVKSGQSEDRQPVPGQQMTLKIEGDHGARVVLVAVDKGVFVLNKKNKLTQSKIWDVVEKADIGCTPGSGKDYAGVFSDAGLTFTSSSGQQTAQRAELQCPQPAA
human complement protein C3b (human), sequence (P01024 749-1663, chain 2 of 2): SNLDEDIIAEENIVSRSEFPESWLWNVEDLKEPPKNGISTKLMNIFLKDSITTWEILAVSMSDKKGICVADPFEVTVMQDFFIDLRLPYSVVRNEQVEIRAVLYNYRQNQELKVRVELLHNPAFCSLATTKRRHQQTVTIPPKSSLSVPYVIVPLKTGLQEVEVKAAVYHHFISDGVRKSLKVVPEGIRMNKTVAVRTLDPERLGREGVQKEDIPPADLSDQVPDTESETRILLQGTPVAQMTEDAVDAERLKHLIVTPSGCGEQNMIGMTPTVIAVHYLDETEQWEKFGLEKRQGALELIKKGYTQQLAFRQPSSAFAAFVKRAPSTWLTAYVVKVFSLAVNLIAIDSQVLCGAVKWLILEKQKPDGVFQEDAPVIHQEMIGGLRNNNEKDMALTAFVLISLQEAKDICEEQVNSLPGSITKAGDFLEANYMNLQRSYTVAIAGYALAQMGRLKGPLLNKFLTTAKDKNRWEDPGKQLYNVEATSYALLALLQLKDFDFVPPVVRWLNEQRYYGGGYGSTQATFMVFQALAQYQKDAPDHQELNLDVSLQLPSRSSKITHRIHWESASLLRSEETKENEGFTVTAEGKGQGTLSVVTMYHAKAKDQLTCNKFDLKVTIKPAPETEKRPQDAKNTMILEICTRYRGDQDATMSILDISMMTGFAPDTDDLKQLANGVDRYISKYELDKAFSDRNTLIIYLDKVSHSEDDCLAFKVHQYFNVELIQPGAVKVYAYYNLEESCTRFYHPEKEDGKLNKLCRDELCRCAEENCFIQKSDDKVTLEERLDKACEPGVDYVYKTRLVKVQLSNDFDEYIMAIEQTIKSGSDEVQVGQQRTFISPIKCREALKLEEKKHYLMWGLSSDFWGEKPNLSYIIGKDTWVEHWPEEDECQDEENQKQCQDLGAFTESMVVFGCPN

Substance	complement-mediated hemolysis of antibody-sensitized sheep erythrocytes (classical pathway) after preincubation of normal human serum with the protein, as % of untreated serum (% of untreated serum) [1]	pKd [2]	pKd [3]	complement-mediated hemolysis of rabbit erythrocytes (alternative pathway) after preincubation of normal human serum with the protein, as % of complement activity in untreated serum [4]
LigB9-11 (domain or fragment)	64	7.16	7.17	57.8
LigB9-12 (domain or fragment)		7.16	7.24	
LigB8-12 (domain or fragment)	71.4			38.9
LigB7′-12 (from UniProt C0J1Q6 1-1889) (domain or fragment)		7.37	7.16	
